# From patent US20140038834
# What was measured:
# [1] = test system: dephosphorylated HPLC-purified bovine NfH (treated with alkaline phosphatase)
# [2] = test system: HPLC-purified bovine NfH (phosphorylated)
substance,measurement,setting,value
"enterokinase (EK, EC 3.4.21.9, Roche, Cat No 11 334115001)","limited proteolysis, cleavage products seen by immunoblot",[1],"The described in vivo cleavage products can be reproduced in vitro by incubation of purified NfH with enterokinase (FIG. 2D, lane 4 and FIG. 2E, lane 8)"
same,"limited proteolysis, cleavage products seen by immunoblot",[2],"The described in vivo cleavage products can be reproduced in vitro by incubation of purified NfH with enterokinase (FIG. 2D, lane 4 and FIG. 2E, lane 8)"
